Test results from patent US11834499 (University of California, dated 2023).
Substitutions are numbered along the chain they refer to. Values belong to the binder of their own block, whether it stands above or below them.

Assays:
[1] = biological target: T1, human Claudin-18.2 (CLDN18.2) (human); assay: FACS, 1.5 ug antibody, HEK293T-CLDN18.2 C12 clone cells
T1 construct: On cells: fused to GFP in engineered HEK293T cells (clone C12), endogenous in HUPT4 and SNU601 cells; also called human CLDN18.2

[2] = biological target: T1, human Claudin-18.2 (CLDN18.2); assay: FACS, 1.5 ug antibody, HUPT4 cells (endogenous CLDN18.2)
Protocol: FACS assays were carried out to determine relative antigen binding strengths of the humanized antibodies (at either 1.5 μg or 0.3 μg) for binding to CLDN18.2 as expressed by the indicated cancer cell lines.

[3] = biological target: T1, human Claudin-18.2 (CLDN18.2); assay: KinExA, cell-based; HUPT4, Versene; Error% 3.57; 95% CI 0.31nM - 1.34nM; equilibrium curves 1nM, 20nM
Protocol: (§1) For each KD measurement, in general, at least two antibody concentration curves were prepared using the same batch of cells (same passage) to avoid changes in expression level from passage to passage. Briefly, either HEK293T CLDN18.2-mGFP C12 cells (engineered overexpression cell line) or HUPT4 cells (native positive cell line) were detached using Versene. Cells were then equilibrated in different concentrations of the antibody solutions, respectively, in 2% FBS/DMEM or 2% FBS/RPMI at 4° C. overnight. Cells concentrations started with 1.8 ×10^7 cells/ml and 2-fold serial dilution was performed to 10 points. In addition, antibody solution only (Signal 100%) and nonspecific binding (NSB) buffer only were included in each curve. Next day, spin the cells at 1500 rpm for 10 mins and saved the supernatant for measurement. […] The KD and antigen expression level were calculated using two antibody curves analyzed by n-curve analysis.

[4] = biological target: T1, human Claudin-18.2 (CLDN18.2); assay: KinExA, cell-based; HEK293T-CLDN18.2-mGFP C12, Versene; Error% 2.35; 95% CI 2.12nM - 6.47nM; equilibrium curves 500pM, 2nM, 10nM
Protocol: as §1

[5] = biological target: T1, human Claudin-18.2 (CLDN18.2); assay: KinExA, cell-based; HUPT4, Versene; Error% 3.73; 95% CI 0.87nM - 3.23nM; equilibrium curves 1nM, 20nM
Protocol: as §1

[6] = biological target: T1, human Claudin-18.2 (CLDN18.2); assay: KinExA, cell-based; HEK293T-CLDN18.2-mGFP C12, Versene; Error% 1.84; 95% CI 2.03nM - 4.44nM; equilibrium curves 500pM, 2nM, 10nM
Protocol: as §1

[7] = biological target: T1, human Claudin-18.2 (CLDN18.2); assay: flow cytometry; HUPT4 over M202 [Cont.]
Protocol: (§2) The samples were then measured by Intellicyt® iQue Advanced Flow Cytometry Platform.

[8] = biological target: T1, human Claudin-18.2 (CLDN18.2); assay: flow cytometry; HEK293T CLDN18.2 over HEK293T parental [Cont.]
Protocol: as §2

[9] = biological target: T1, human Claudin-18.2 (CLDN18.2); assay: KinExA, cell-based; HUPT4, Versene; Error% 2.72; 95% CI 0.58nM - 1.43nM; equilibrium curves 1nM, 20nM
Protocol: as §1

[10] = biological target: T1, human Claudin-18.2 (CLDN18.2); assay: KinExA, cell-based; HEK293T-CLDN18.2-mGFP C12, Versene; Error% 7.72; 95% CI 0.18nM - 11.91nM; equilibrium curves 500pM and 10nM
Protocol: as §1

[11] = biological target: T1, human Claudin-18.2 (CLDN18.2); assay: KinExA, cell-based; HUPT4, Versene; Error% 3.90; 95% CI 0.28nM - 1.32nM; equilibrium curves 1nM, 20nM
Protocol: as §1

[12] = biological target: T1, human Claudin-18.2 (CLDN18.2); assay: KinExA, cell-based; HEK293T-CLDN18.2-mGFP C12, Versene; Error% 7.19; 95% CI 0.43nM - 6.90nM; equilibrium curves 500pM and 10nM
Protocol: as §1

mouse CLDN18.2 = biological target: T2, mouse CLDN18.2 (mouse, UniProt P56857 10-264, Expressed on HEK293T cells as a fusion to GFP. The GFP is left out of the letters.); assay: FACS dose curve, AF647-labelled IgG on HEK293T mouse CLDN18.2 MP cells
T2 construct: also called mouse CLDN18.2 fused to GFP; not shown: The GFP fused to mouse CLDN18.2, and any linker to it
T2 chain: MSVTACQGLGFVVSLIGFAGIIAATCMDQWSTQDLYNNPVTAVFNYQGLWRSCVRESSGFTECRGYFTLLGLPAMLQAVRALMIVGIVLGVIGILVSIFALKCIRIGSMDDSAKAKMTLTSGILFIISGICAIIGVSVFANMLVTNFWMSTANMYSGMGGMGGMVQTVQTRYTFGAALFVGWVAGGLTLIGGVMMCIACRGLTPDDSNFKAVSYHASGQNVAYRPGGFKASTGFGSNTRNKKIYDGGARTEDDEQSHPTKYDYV

B1: HuAb307-3 (antibody, V domains shown)
VH: EVQLLESGGGLVQPGGSLRLSCAASGFTFSSYTMSWVRQAPGKGLEWVATIIIGGSYTYYADSVKGRFTISRDNSKNTLYLQMNSLRAEDTAVYYCTRLVKGNAMDYWGQGTLVTVSS
VL: DIVMTQSPDSLAVSLGERVTMNCKSSQSLLNSGNQKNYLSWYQQKPGQPPKLLFYWASTRESGVPDRFSGSGSGTDFTLTISSVQAEDVAVYYCQNDYSYPFTFGQGTKLEIK
notes: Humanized, expressed as full-length IgG
FACS signal (relative antigen binding strength) [1]: 151000
FACS signal (relative antigen binding strength) [2]: 34000
Kd [3]: 0.69 nM
Kd [4]: 3.65 nM

B2: 02-0358-h3 (antibody, V domains shown)
VH: EVQLVESGGGLVQPGGSLRLSCAVSGFTFSSFGMHWVRQAPGKGLEWVAYISSGTTNIYYADSVKGRFTVSRDNAKNSLYLQMNSLRAEDTAVYYCVRSGYYGNSLDYWGQGTLVTVSS
VL: B1 VL with L30F, K36R, S40T, F54I, D97V, S99I, F102L
notes: Humanized IgG
Kd [5]: 1.7 nM
Kd [6]: 3 nM

B3: 02-0307-h6 (antibody, V domains shown)
VH: B1 VH
VL: B1 VL with N31S
notes: Humanized IgG (detected with anti-human IgG Fc)
ratio native [7]: 137
ratio OE [8]: 482
Kd [9]: 0.93 nM
Kd [10]: 1.42 nM

Results, then the binder that gave them:

ratio native [7]: 111
ratio OE [8]: 574
Kd [11]: 0.67 nM
Kd [12]: 1.81 nM
B4: 02-0358-h5 (antibody, V domains shown)
VH: B2 VH
VL: B1 VL with L30F, N31S, K36R, S40T, F54I, D97V, S99I, F102L
notes: Humanized IgG

binding result (mouse CLDN18.2): no binding (tested: 0.32 nM to 1000 nM)
B5: Ab 392 (antibody, V domains shown)
VH: EVQLQQSGPELVKPGASVKMSCKASGFTFTSYVMHWVKQKSGQGLEWIGYINPYNDDIKYNAKFEDKATLTSDRSSSTAYMELSSLTSDDSAVYFCTRGDYWGQGTTLTVSS
VL: DIVMTQSPSSLTVTTGEKVTMDCKSSQSLLNSGNQKNYLTWYQQKSGQPPKLLIYWASIRKSGVPDRFTGSGSGTDFTLTISSVQAEDLAVYYCLNDYSFPLTFGAGTKLELK

binding result (mouse CLDN18.2): no binding (tested: 0.32 nM to 1000 nM)
B6: Reference antibody 2 (Benchmark 2-163E12) (antibody, V domains shown)
VH: QVQLQQSGAELARPGASVKLSCKASGYTFTDYYINWVKQRTGQGLEWIGEIYPGSGNTYYNEKFKGKATLTADKSSSTAYMQLSSLTSEDSAVYFCARSYGAFDYWGQGTTLTVSS
VL: B5 VL with T15A, D22S, S46P, I59T, K61E, L95Q, F100Y
